# Experimental data as given in patent publication US10556007B2, “Antibody which binds Lrg1 and methods of use” (UCL Business PLC, priority 2015, dated 2020).
# “And” between values parts separate entries of the source, which are not always exact repeats. Equal values may be shown once. “Also recorded” adds a separate entry of the source.
# T1: Lrg1 (overlapping 15-mer peptides and full length) (Homo sapiens, UniProt P02750)
# T1 sequence (P02750 36-347): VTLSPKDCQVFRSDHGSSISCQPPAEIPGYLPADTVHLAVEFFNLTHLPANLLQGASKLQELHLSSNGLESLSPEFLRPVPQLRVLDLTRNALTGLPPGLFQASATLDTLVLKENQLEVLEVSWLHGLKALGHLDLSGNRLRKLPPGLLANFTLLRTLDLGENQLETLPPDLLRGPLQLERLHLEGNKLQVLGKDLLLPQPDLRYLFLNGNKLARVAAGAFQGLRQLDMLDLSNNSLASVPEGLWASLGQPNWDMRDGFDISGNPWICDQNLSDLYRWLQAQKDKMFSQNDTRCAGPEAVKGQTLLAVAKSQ
# Key:
# [1] = test system: Human umbilical vein endothelial cells (HUVEC); test: Matrigel tube formation assay; assay type: cell-based; conditions: 100 nM antibody, overnight
# Experimental: The antibodies were tested for their ability to inhibit tube formation in a Matrigel assay. Human umbilical vein endothelial cells (HUVEC) were plated on Matrigel and cultured overnight in the presence of 100 nM mAbs. The blocking rabbit polyclonal Lrg1 antibody was also evaluated. […] Blocking with 4H2 never exceeded ˜50%.
# [2] = test system: explanted E16.5 mouse metatarsals; test: Mouse metatarsal angiogenesis assay (ex vivo); assay type: cell-based; conditions: mAbs at 100 nM, 12 days of culture
# Experimental: In this assay the function-blocking activity of the mAbs was tested, using explanted E16.5 mouse metatarsals. Vessels grow spontaneously from the embryonic bones to form a 2D-network that can be readily quantified with regard to, for example, vessel length, calibre and branch points. In the mouse metatarsal assay mAbs were added at 100 nM to the culture medium during 12 days of culture, with replenishment of media and mAbs every two days. At the end of the experiment samples were fixed and immunostained for Platelet endothelial cell adhesion molecule (PECAM), and vascular networks were quantified using Imaris software, with normalization to a phosphate buffered saline (PBS) control.
# [3] = test system: laser-induced choroidal neovascularisation; test: Rat laser-induced choroidal neovascularisation (CNV); assay type: in vivo; conditions: Long Evans rats, intravitreal at time of lasering, analysis 7 days later
# Experimental: Several antibodies were tested for their ability to block CNV in the rat. In these experiments mAbs were injected intravitreally at the time of lasering, with eyes being retrieved for analysis 7 days later (FIG. 5). Long Evans rats, aged 6-8 weeks, each received 5 retinal laser burns at the same time as intravitreal delivery of […] mAb or control IgG into both eyes. Four rats were used for each mAb, so a total of 40 lesions were analysed by staining for collagen IV and the neovascular areas quantified. […] Avastin was also tested in the rat laser model (data not shown) and observed to have no effect, consistent with Avastin having low affinity for rat VEGF.
# [4] = biological target: T1, Lrg1 (overlapping 15-mer peptides and full length); test: Epitope mapping on ProArray Ultra peptide microarray; assay type: binding
# Experimental: The determination of peptide-antibody binding was performed by incubation of serum or antibody samples with a ProArray Ultra® peptide microarray, followed by incubation with a fluorescent-labelled secondary antibody.
# All peptides were synthesized separately, and then bound to the ProArray Ultra® slide surface using Prolmmune's proprietary technology. This optimised process ensured that peptides were presented on the array in such a manner as to closely mimic the properties of the corresponding protein region, circumventing the inherent physiochemical variation of the free peptides themselves and making a compatible, combined peptide and protein array platform. The test analytes (peptides or proteins) were dispensed onto the ProArray Ultra® slide in discrete spots and appropriate gal-files enabled exact alignment of the resulting array features back to the analyte deposited.
# ProArray Ultra® slides were blocked using a validated blocking buffer to reduce non-specific binding of the sera. […] After several washing steps, the ProArray Ultra® arrays were dried and scanned using a high-resolution fluorescence microarray scanning system. […]
# ProArray Ultra® slides containing the immobilised peptides were incubated with the antibody samples. […] The murine IgG positive controls were detected in all samples. […]
# [5] = test system: LL/2 tumours; test: LL/2 tumour vasculature; assay type: in vivo, mouse; conditions: wild type mice, 50 mg per kg
# From the text: B16/F0 and LL/2 […] tumour cell lines were grafted into wild type and Lrg1 knockout mice.
# [6] = test system: laser-induced choroidal neovascularisation; test: Mouse model of laser-induced CNV; assay type: in vivo; conditions: intraocular injection at lasering, FFA after 7 days
# Experimental: The images on the left of FIG. 17A show a typical wild-type mouse retina under normal illumination (Fundus), and under fluorescence illumination, 7 days after three laser burns were administered to the retinal pigment epithelium. Fluorescence images were captured ˜60 seconds after systemic dosing with fluorescein (Early Phase FFA) and again after ˜7 minutes (Late Phase FFA). At the time of lasering, animals received intraocular injections of either control IgG (top panels) or 15C4 (lower panels). The Early Phase FFA images show the size of the lesions, and the Late Phase images show leakage of fluorescein into the retina. Lesion sizes were quantified for 15C4 at 2.5, 5 and 10 μg doses, and also Eylea at 2 and 4 μg, and the % blocking is a measure of average lesion size relative to that observed in the controls. On the far right a similar analysis was undertaken using Eylea and Magacizumab (both at 2.1 μg) alone and in combination.
# Wild type C57B6 mice were anaesthetized and received intravitreal injections of various doses of either Magacizumab, Eylea, or both in combination, immediately following laser photocoagulation of the retinal pigment epithelium. After 7 days (to allow the vascular lesions to form) the mice were again anaesthetized and examined by fluorescein angiography (FFA). Early phase FFA images (taken after 90 s) show the degree of vascularization at the lesion site. Measurement of the lesion area in the early phase images permits quantification in which percentage lesion size is normalized against the IgG4 control (FIG. 18).
# [7] = test system: lesions in RPE/Choroid of the JR5558 mouse; test: JR5558 mouse lesion formation; assay type: in vivo; conditions: 50 mg/kg IP every 3 days from D14, eyes harvested D25, vs IgG
# Experimental: 15C4 or IgG at 50 mg/kg was administered IP every 3 days from D14. Eyes were harvested on D25 and RPE/Choroid stained with Collagen IV. The number of lesions was counted and data quantified for the two groups.
molecule,measurement,setting,value
"15C4: mouse monoclonal antibody against human Lrg1, VH SEQ ID NO: 1, VL SEQ ID NO: 2 (antibody, V domains shown, 15C4 Variable Heavy Chain; 15C4 Variable light chain) VH: QVQLQQSGDEVVRPGSSVKISCKASGYTFSGYWMNWVKQRPGQGLQWIGQIYPGDGDTNYNGKFKGKATLTADKSSSTAYMQLSTLTSEDSAIYFCARSITTVVLDYWGQGTTLTVSS VL: DIVLTQSPVSLAVSLGQRATISCRASQSVSTSGYSFMHWYQQKPGQPPKFLIKYASNLESGVPARFSGSGSGTDFTLNIHPVEEEDTATYYCQHSWEMPLTFGAGTKLELK",blocking of tube formation,[1],60%
same,inhibition of angiogenesis (in words),[2],inhibited angiogenesis
same,inhibition of angiogenesis,"[2]; normalised to PBS control, 0.1 µM",~40% and > 25%
same,blockade of angiogenesis (CNV),[3],functional blockade of angiogenesis; also recorded: effective blockade; also recorded: less efficacious than 4H2 in the in vivo rodent models of angiogenesis
same,binding to full length Lrg1 on array,[4],binder at all dilutions
same,replication of Lrg1 knockout tumour vessel phenotype,[5],These results were mimicked
same,lesion formation,[6],inhibited lesion formation; also recorded: inhibit lesion formation with similar efficacy to the VEGF blocker Eylea
same,number of lesions,[7],reduces lesion formation; also recorded: significantly fewer lesions
